Assay results from publication PMC12775996.

Columns and labels:
[1] = target: human platelet factor 4 (human)
[2] = target: human platelet factor 4; assay: ELISA-qPCR; settings: PF4-coated wells; N = 6, two independent repeats; bar labelled Ad5-ΔfX; parent: est. 1.7e5; read off a plot
[3] = target: adenovirus type 5 vector particles (wild-type capsid) (human adenovirus type 5); assay: SPR; MP-SPR 220A, CMD 2D sensor, viruses amine-coupled, 22°C; PF4 at 7 μg/mL (900 nM) in pure PBS without passivating agents, 600 s injection, then flush

Substance | VP uptake in A549 cells (internalized Ad genomes by qPCR, 3 hpi, 20 vpc) after incubation with 10 μg/mL PF4 [1] | further results
adenovirus type 13 vector particles (complex) | 1.6 fold | –
adenovirus type 5 vector particles (wild-type capsid) (from UniProt P06496) T425A | – | response (number of bound VPs) [2]: 290000
adenovirus type 69 vector particles (complex) | 3 fold | –
human platelet factor 4 (natural protein) | – | Kd [3]: 1050 nM
adenovirus type 5 vector particles (wild-type capsid), P06496 1-107 | 3 fold | –
adenovirus type 11 vector particles (complex) | 1.6 fold | –
